The test system of the series is ATP. Kind of series: switch fluorescence ratio, 500 uM ATP over buffer (Cy3 cluster intensity, sum of 5 cycles each) (fold (ratio)); higher = stronger signal-on switching upon ATP binding; sequences stand for … in TCGTCGGCAGCGTCAGATGTGTATAAGAGACAGTTTTTTTTTTTTTTTTTTTTTTTTT…TC. The conditions noted are these: aptamer strand: ATP DNA aptamer (quencher-CACCTGGGGGAGTATTGCGGAGGAAGG + anchor), 100 nM annealed; ATP concentration: 500 uM. An outline of the steps:
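Cy3-labelled switching-strand clusters on a modified Illumina MiSeq flow-cell were annealed to 100 nM quencher-labelled ATP aptamer, imaged in selection buffer, then imaged after 15 min with 500 uM ATP at 22 °C. Five buffer/ATP cycles ran, with NaOH stripping and re-annealing between them. The fluorescence ratio is summed target-cycle over summed buffer-cycle Cy3 intensity per cluster, averaged per switch-domain sequence. Clusters outside 100-1000 RFU were excluded.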

± gives the standard deviation of the averaged measurements.
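Further: ATP exposure 15 min at 22 °C before imaging.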

For TCTTATTTTT, the switch fluorescence ratio amounted to 1.01 ± 0.025. Under TCTTCTATCT stands 0.985 ± 0.039. Under TCTTCTGGCT stands 1.02 ± 0.019; under TCTTCTGTCG, 1.001 ± 0.0087.

On to TCTTGAAATT, for which the switch fluorescence ratio amounted to 1.021 ± 0.0031. On to TCTTGATTTT, for which the switch fluorescence ratio worked out at 1 ± 0.011. With TCTTGGCCAT the figure was 1.24 ± 0.32. Take TCTTGGGTTG: the switch fluorescence ratio is 0.986 ± 0.029. Consider TCTTGGTCAG, for which the switch fluorescence ratio was determined as 0.991 ± 0.025. For the sequence TCTTGGTCGG, the switch fluorescence ratio turned out to be 1.026 ± 0.0041. Under TCTTGGTGT stands 0.9898 ± 0.0088; under TCTTGTAGCG, 0.986 ± 0.016; under TCTTTAAAGT, 1.04 ± 0.083.

As for TCTTTAATAA, the switch fluorescence ratio came to 1 ± 0.039. As for TCTTTATGTG, the switch fluorescence ratio was found to be 0.998 ± 0.016. Under TCTTTCAAGT stands 0.994 ± 0.011; under TCTTTCCTGC, 1.022 ± 0.0014. With TCTTTCTTTC, the switch fluorescence ratio worked out at 1.01 ± 0.03.

Turning to TCTTTGGGGT, the switch fluorescence ratio amounted to 1.01 ± 0.012. Under TCTTTGTATG stands 0.991 ± 0.017. With TCTTTGTCTA the figure was 0.972 ± 0.02; with TCTTTTAAAG, 0.988 ± 0.035; with TCTTTTCGAA, 1.01 ± 0.033. For TCTTTTCTTT, the switch fluorescence ratio was 1.04 ± 0.043. With TCTTTTGGCG the figure was 0.927 ± 0.059. As for TCTTTTGGGA, the switch fluorescence ratio is 1.16 ± 0.29. With TCTTTTGGTG the figure was 1.03 ± 0.019; with TCTTTTTGGG, 1.13 ± 0.16; with TCTTTTTTGC, 0.986 ± 0.073. Under TCTTTTTTGG stands 1 ± 0.042; under TGAAAAAGAT, 0.989 ± 0.028.

For TGAAAAGAGG, the switch fluorescence ratio was found to be 0.988 ± 0.021. With TGAAAAGGGC the figure was 0.9875 ± 0.0095; with TGAAAATTCG, 1.08 ± 0.11. With TGAAAGAACT the figure was 1.16 ± 0.21; with TGAAAGTTGG, 0.997 ± 0.013. Take TGAAATAATT: the switch fluorescence ratio is 0.9791 ± 0.0017. Under TGAAATGAAT stands 0.994 ± 0.02; under TGAAATGGTT, 1.01 ± 0.017. Under TGAAATGTTT stands 0.999 ± 0.031. With TGAAATTGTT the figure was 1 ± 0.045. As to TGAACAAATG, the switch fluorescence ratio was found to be 1.04 ± 0.11.

Take TGAACGGCTT: the switch fluorescence ratio amounted to 1.04 ± 0.011. With TGAAGAAGGT the figure was 1.03 ± 0.015. Regarding TGAAGACTGT, the switch fluorescence ratio was determined as 0.988 ± 0.045. As for TGAAGCAAAT, the switch fluorescence ratio amounted to 1.77 ± 0.075.

Regarding TGAAGGATAC, the switch fluorescence ratio was 1.28 ± 0.23. Under TGAAGGGTTC stands 1.12 ± 0.24; under TGAAGGGTTT, 0.996 ± 0.052. With TGAAGTAGGG the figure was 1.05 ± 0.12. With TGAAGTTCGC the figure was 0.969 ± 0.021; with TGAAGTTTTC, 0.968 ± 0.022.

For the sequence TGAAGTTTTG, the switch fluorescence ratio was 1.02 ± 0.027. Under TGAATAGGAG stands 1.011 ± 0.0027. Under TGAATAGGGA stands 0.982 ± 0.05. On to TGAATATAGT, for which the switch fluorescence ratio was determined as 1.004 ± 0.0042. With TGAATATATG the figure was 1.02 ± 0.032; with TGAATCGGGA, 0.99 ± 0.011; with TGAATCTGTT, 1.02 ± 0.05.

Regarding TGAATGAAGG, the switch fluorescence ratio worked out at 1.01 ± 0.058. With TGAATGATAG, the switch fluorescence ratio turned out to be 0.983 ± 0.026. In the case of TGAATGGGGC, the switch fluorescence ratio worked out at 0.953 ± 0.042. Turning to TGAATTTTAC, the switch fluorescence ratio is 1.03 ± 0.04.

For the sequence TGACACGGTT, the switch fluorescence ratio worked out at 0.9814 ± 0.0058. For the sequence TGACATAGGT, the switch fluorescence ratio stood at 1.02 ± 0.019.

On to TGACATGTAG, for which the switch fluorescence ratio came to 1.01 ± 0.052.

As to TGACATTATA, the switch fluorescence ratio worked out at 1.01 ± 0.032. Take TGACATTTGT: the switch fluorescence ratio stood at 0.965 ± 0.048.

Consider TGACCCTATA, for which the switch fluorescence ratio came out at 1.06 ± 0.028.

Regarding TGACCCTTAG, the switch fluorescence ratio amounted to 0.987 ± 0.025. Take TGACCCTTCT: the switch fluorescence ratio is 1.14 ± 0.05. As to TGACCGAAGT, the switch fluorescence ratio is 1.043 ± 0.0028.

Turning to TGACCGGGGG, the switch fluorescence ratio was found to be 1.0571 ± 5.2e-05. Under TGACCTCGTG stands 0.995 ± 0.039. For the sequence TGACGAGGTG, the switch fluorescence ratio stood at 0.9816 ± 0.0051.

On to TGACGCAAAG, for which the switch fluorescence ratio is 1.63 ± 0.065.

For the sequence TGACGCATAG, the switch fluorescence ratio was 1.7 ± 0.12. With TGACGCCGGG the figure was 0.98 ± 0.018. Regarding TGACGCGTTT, the switch fluorescence ratio worked out at 1.02 ± 0.041. With TGACGGCTGG the figure was 1.026 ± 0.0044; with TGACGGGAGG, 0.991 ± 0.04; with TGACGGGCAC, 1.17 ± 0.036. Consider TGACGGGGGA, for which the switch fluorescence ratio worked out at 0.986 ± 0.021. Regarding TGACGGGGTT, the switch fluorescence ratio was 0.992 ± 0.026. With TGACGGTGTG the figure was 0.973 ± 0.02. As for TGACGTTAAG, the switch fluorescence ratio is 1.03 ± 0.086. Under TGACGTTATG stands 1 ± 0.053; under TGACTACATG, 1.04 ± 0.013. In the case of TGACTACCAT, the switch fluorescence ratio came to 1.07 ± 0.08. Under TGACTCCAGG stands 1.23 ± 0.023. Under TGACTTAGTG stands 1.03 ± 0.016. TGACTTATGG: the switch fluorescence ratio was 0.983 ± 0.08.

For the sequence TGACTTGGCG, the switch fluorescence ratio worked out at 1.026 ± 0.0087. With TGACTTGTGC, the switch fluorescence ratio came to 0.976 ± 0.037. For the sequence TGAGAAATTA, the switch fluorescence ratio is 1.05 ± 0.014.

TGAGAAGTTG: the switch fluorescence ratio is 1.01 ± 0.066. As to TGAGAATGGG, the switch fluorescence ratio amounted to 0.995 ± 0.044. In the case of TGAGAATTTA, the switch fluorescence ratio was 0.9935 ± 0.0019.

TGAGACTAGT: the switch fluorescence ratio came to 0.989 ± 0.023. For the sequence TGAGAGGAGT, the switch fluorescence ratio was found to be 0.9911 ± 0.0013. With TGAGAGTTAA the figure was 0.961 ± 0.036; with TGAGAGTTTG, 0.987 ± 0.017; with TGAGATACAT, 1.13 ± 0.1. With TGAGATGGGG the figure was 0.99 ± 0.021; with TGAGATTCCT, 1.09 ± 0.034; with TGAGCATGGG, 1 ± 0.029.

With TGAGCCGGGT, the switch fluorescence ratio is 1.02 ± 0.033.

Regarding TGAGCCTCGG, the switch fluorescence ratio amounted to 0.965 ± 0.032. Under TGAGCGGGAA stands 1.01 ± 0.02.

On to TGAGCGGGTA, for which the switch fluorescence ratio was found to be 1.024 ± 0.0052. Under TGAGCTGCGT stands 1.01 ± 0.022; under TGAGGAACCT, 1.77 ± 0.098; under TGAGGATGGA, 0.975 ± 0.044. With TGAGGATGTT the figure was 0.9852 ± 0.0089; with TGAGGCAGGG, 1.037 ± 0.0042; with TGAGGCGCGG, 0.97 ± 0.025. Under TGAGGCTGTT stands 1 ± 0.031. As for TGAGGGAGGC, the switch fluorescence ratio worked out at 1.06 ± 0.06. Regarding TGAGGGATGC, the switch fluorescence ratio came to 0.968 ± 0.029. Under TGAGGGCGTG stands 1.01 ± 0.014.

Source of the values: the supplement of paper PMC10126150.
